Km and Vmax data for one protein are collected here from patent publication US7329517B2, “Escapin protein, a broadly antimicrobial compound from ink of the sea hare Aplysia californica, and uses thereof” (priority 2004, dated 2008).

Substrate in data set [1]: N=C(N)NCCC[C@H](N)C(=O)O
In words: L-amino acid oxidase (LAAO) enzyme-coupled assay of purified escapin. Format: biochemical, Aplysia californica. The note with it: other: horseradish peroxidase/o-dianisidine coupled assay, 0.1 M Tris-HCl pH 7.6, room temperature, O.D. 436 nm, Lineweaver-Burk plot. From the text: (§1) Animals. Sea hares, Aplysia californica, were collected in California or provided by the NIH National Resource for Aplysia Facility (http://www.rsmas.miami.edu/groups/sea-hares/). They were maintained in aquaria containing recirculating, filtered, and aerated artificial sea water (Instant Ocean™: Aquarium Systems), and fed red alga (Gracilaria ferox). Ink gland processing. The ink glands were surgically removed from sea hares, gently squeezed in a Petri dish with the blunt end of a scalpel handle to release most of the ink secretion from the individual vesicles contained in the gland. The secretion was then pipetted to a microfuge tube and frozen at −80° C. until needed. Opaline gland processing. The opaline glands were surgically removed from sea hares, gently blotted dry on a Kimwipe® to remove seawater (since water causes opaline secretion to polymerize) and transferred to an ultracentrifuge tube. This was centrifuged at 30,000 g for 30 min at 4° C. (Beckman Optima TLX Ultracentrifuge). The pure opaline was then pipetted away from the gland tissue, transferred to a microfuge tube, and frozen at −80° C. until needed. Purification of proteins from purple ink. Proteins were isolated and purified using an ÄKTA 100 Automated FPLC (Amersham Pharmacia Biotech). A preparative grade Hi-Load Superdex 200 16/60 column (Pharmacia) or an in-house-packed Sephacryl 300 HR 26/60 column was used for initial size separation with fractions collected in an automated fraction collector. Fractions identified to have activity by bacterial assay were concentrated using a Biomax 5K NMWL membrane Ultrafree Centrifugal Filter Device (Millipore). Active fractions were further purified on a cation exchange Mono S column, and fractions were collected, assayed, concentrated, and frozen at −80° C. One purified protein of interest was named “escapin” and was bright yellow. Escapin's concentration was determined by Bradford assay using bovine serum albumen (BSA) as a standard. The molecular mass of purified escapin was determined by gel filtration using a Superose-6 10/30 column (Amersham Pharmacia Biotech) eluted with 50 mM potassium phosphate buffer (pH 7.2) containing 150 mM KCl at a flow rate of 0.5 ml/min. The molecular weight markers were BSA (67 kDa), ovalbumen (43 kDa), and chymotrypsinogen A (25 kDa). Protein sequencing. Aplysia californica ink was analyzed for protein content using sodium dodecyl sulfate polyacrylamide gel electrophoresis (SDS-PAGE) on 12% gels. […] This band was blotted from the polyacrylamide gel to a PVDF membrane using CAPS transfer buffer and determined by protein microsequencing and proteomic mass spectrometry (University of Massachusetts Medical School Proteomic Mass Spectrometry Lab: http://www.umassmed.edu/proteomic/leszyk). […]

Substrate in data set [2]: NCCCC[C@H](N)C(=O)O
The data set is described as above. The conditions noted are these: other: horseradish peroxidase/o-dianisidine coupled assay, 0.1 M Tris-HCl pH 7.6, room temperature, O.D. 436 nm, Lineweaver-Burk plot. Format: biochemical, Aplysia californica.
Text: as §1

B1: Aplysia californica escapin (L-amino acid oxidase), wild type purified from ink, SEQ ID NO:1 (Aplysia californica) (protein)
chain: DGVCRNRRQCNKEVCGSSYDVAIVGAGPGGANSAYMLRESGLDIAVFEYSDRVGGRLFTYQLPNTPDVNLEIGGMRFIEGAMHRLWKVISELGLTPKVFKEGFGKEGRQRFYLRGQSLTKKQVKSGDVPYDLSPEEKANQGRLVEYYLEKLTGLQLNGGPLKREVALKLTVPDGRFLYDLTFDEALDLVASPEGKEFARDTHVFTSEVTLDASAISIFDDHLGEDYYGSEIYTLEEGMSSVPQGLLQTFLDAAKSNEFFPNNHLKALRRRTNGQYVLYFEPTTSKDGQTTINYLEPLKVVCAQRVILAMPVYALRQLDWSQLRNDRATQAYRAVRPMPASKVFMTFDQPWWLQNERKSWVTKSDALFSQMYDWQKSEASGDYILIASYADGLKAQYLRELKNQGEDIPGSDPGYNQVTVPLKDAILEHLTEAYGVERDSIPEPVTAASQFWTDYPFGCGWITWRAGYHFDDVISTMRRPSLKDEVYVVGSDYSWGLISSWIEGALETSENVINDYFL
notes: a signal peptide cleavage site between 18 and 19 amino acid residues was predicted by SignalIP; from tissue; host or cells: ink (ink gland secretion) of Aplysia californica
Usually Km stands for the concentration of substrate that gives half-maximal velocity. For orientation: Vmax means the rate approached at saturating substrate. Regarding B1, in data set [1], the Michaelis constant (Km) came out at 25 µM and the Vmax came out at 1.56 µM/s. For the same protein, in data set [2], the Michaelis constant (Km) was found to be 31 µM and the maximal velocity (Vmax) was determined as 1.92 µM/s.
